From US20060235199A1, “Reagent for amplifying amyloid fibrosis of amyloid ss-protein” (priority 2003, published 2006) come the findings set out here.

Series [1] in a line: Measurement of the secondary structure of each peptide by a CD spectrum. The class given is physicochemical. Particulars: peptide 100 μM, 20 mM Tris-HCl buffer (pH 7.4); for secondary structure by CD spectrum: CD at 25° C.; for CD spectral change with time: incubated at ordinary temperatures. How it is done: The peptide (10-4F), (10-3L), (10-3F), (10-3A), Aβ (14-23) or Aβ (10-35) synthesized in Example 1, which was contained alone in an aqueous solution, was evaluated for its ability to form amyloid fibrils. The secondary structure was examined using a CD spectrum, and the ability to form amyloid fibrils was evaluated with dye thioflavin T (ThT) binding specifically to amyloid fibrils to emit fluorescence, under a transmission electron microscope (TEM).
Solutions of the respective synthesized peptides, 2 mM, in trifluoroethanol (TFE) were prepared and used as stock solutions respectively. Each stock solution was diluted to a final peptide concentration of 100 μM with 20 mM Tris-HCl buffer (pH 7.4), then incubated at ordinary temperatures, and measured for CD spectrum at 25° C. (FIG. 1).

In series [2] the target is T1, Aβ (10-35) formed into amyloid fibrils (nucleus) (Homo sapiens, UniProt P05067).
T1 construct: peptide [Aβ (10-35)] consisting of 10 to 35 residues of amyloid β peptide; made in house; host or cells: chemical synthesis (Fmoc solid phase method)
In words: Amplification, with the artificial peptide, of formation of fibrils of Aβ (10-35) formed into fibrils, monitored with ThT. Format: biochemical. The following applies: peptide 200 μM, Aβ (10-35) nucleus 10 μM, room temperature; for increase in ThT fluorescent intensity in the presence of the nucleus: after 1 day. How it is done: The amplification of formation of fibrils of Aβ (10-35) formed into amyloid fibrils was attempted by using each of the artificial peptides synthesized in Example 1. A small amount of Aβ (10-35) previously formed into fibrils under the condition in (1-2) above was added to a solution of the artificial peptide, and the amplification of formation of fibrils was monitored with ThT.
Starting solution used: [peptide]=2 mM solution in TFE
Concentrations: [peptide]=200 μM, [Aβ (10-35) (nucleus)]=10 μM • (20 mM Tris-HCl buffer (pH 7.4))
(§1) Aβ (10-35) (nucleus) was homogenized by sonication for 1 hour before dilution.
Temperature: room temperature
Concentration: [peptide]=5 μM, [ThT]=6 μM • (20 mM Tris-HCl buffer (pH 7.4))
Stirring conditions: The whole volume of the reaction mixture was sufficiently stirred with a Pasteur pipette before sampling, and then sufficiently stirred in a cell with a Pasteur pipette.
Excitation wavelength: 440 nm, detection wavelength: 482 nm.

The target of series [3] is T1, Aβ (10-35) formed into amyloid fibrils (nucleus). In words: Amplification of fibrils of Aβ (10-35) formed into amyloid fibrils, measurement using a plate reader. Format: biochemical. Particulars: high to low; for rank of difference in fluorescence intensity between nucleus added and not added (ability to amplify fibrils): after completion of fluorescent intensity change; for rank of increase in fluorescent intensity among peptides to which the nucleus had been added: with Aβ (10-35) nucleus. How it is done: A test for the amplification of fibrils of Aβ (10-35) formed into amyloid fibrils by using the artificial peptide of the present invention in Example 2 was attempted using a plate reader.
Starting solution used: [peptide]=5 mM solution in DMSO
Concentrations: [peptide]=20 μM, [Aβ (10-35) (nucleus)]=2.5 μM • (20 mM Tris-HCl buffer (pH 7.4))
as §1
Concentrations: [peptide]=18 μM, [ThT]=25 μM • (20 mM Tris-HCl buffer (pH 7.4))
Stirring conditions: The whole volume of the reaction mixture was stirred 3 times for 2 seconds with a vortex and then (100 μl×2) was stirred with a micropipette in a well before measurement.
Excitation wavelength: 440 nm, detection wavelength: 490 nm.

Series [4] can be described thus: Evaluation, with ThT, of the ability of the artificial peptide used alone to form amyloid fibrils. Particulars: peptide 200 μM alone; for time required to finish formation of fibrils at 40° C. compared with ordinary temperatures: incubation at 40° C.; for time having elapsed until the increase in fluorescent intensity was finished: incubation at room temperature. How it is done:
The peptide (10-4F), (10-3L), (10-3F), (10-3A), Aβ (14-23) or Aβ (10-35) synthesized in Example 1, which was contained alone in an aqueous solution, was evaluated for its ability to form amyloid fibrils. The secondary structure was examined using a CD spectrum, and the ability to form amyloid fibrils was evaluated with dye thioflavin T (ThT) binding specifically to amyloid fibrils to emit fluorescence, under a transmission electron microscope (TEM). The ability of each artificial peptide obtained in Example 1 to form amyloid fibrils when used alone was evaluated using ThT. Starting solution used: [peptide]=2 mM solution in TFE Concentration: [peptide]=200 μM in 20 mM Tris-HCl buffer (pH 7.4) Temperature: room temperature or 40° C. Concentrations: [peptide]=5 μM, [ThT]=6 μM (20 mM Tris-HCl buffer (pH 7.4)) Temperature: room temperature Stirring conditions: The whole volume of the reaction mixture was sufficiently stirred with a Pasteur pipette before sampling, and then sufficiently stirred in a cell with a Pasteur pipette. Excitation wavelength: 440 nm, detection wavelength: 482 nm. The formation of fibrils was slow at ordinary temperatures to make it difficult to monitor the change with time, so the ability of each artificial peptide used alone to form fibrils was then evaluated at an elevated temperature of 40° C. estimated to accelerate formation of fibrils.

For “Ac-Lys-Gln-Lys-Leu-Leu-Ala-Leu-Leu-Glu-Glu-NH2 (Ac-KQKLLALLEE-NH2) [10-3A]”, in series [1], the “secondary structure by CD spectrum” value is given as “spectra unique to random coil state” and the “CD spectral change with time” value is “no spectral change with time”. The “increase in ThT fluorescent intensity in the presence of the nucleus” value (shortened to “increase in ThT fluorescent intensity”) in series [2] is recorded as “no increase in fluorescent intensity”. For the same substance, in series [3], the “rank of difference in fluorescence intensity between nucleus added and not added (ability to amplify fibrils)” value was “order of 10-3L, 10-4F, 10-3F, and 10-3A”; the “rank of increase in fluorescent intensity among peptides to which the nucleus had been added” value (“rank of increase” for short) is “order of 10-4F, 10-3L, 10-3F, and 10-3A”.

Consider “Ac-Lys-Gln-Lys-Leu-Leu-Leu-Leu-Leu-Glu-Glu-NH2 (Ac-KQKLLLLLEE-NH2) [10-3L]”, for which, in series [1], the “secondary structure by CD spectrum” value is “spectra unique to β-sheet structure” and the “CD spectral change with time” value was “increased signals with time”. Besides, in series [2], the “fluorescent intensity with the nucleus relative to that in the absence of the nucleus” value is recorded as “twice as high” and the “increase in ThT fluorescent intensity” value was “significant increase in fluorescent intensity”. For the same substance, in series [3], the “rank of difference in fluorescence intensity between nucleus added and not added (ability to amplify fibrils)” value is recorded as “highest”; the “rank of increase” value was “order of 10-4F, 10-3L, 10-3F, and 10-3A”. Also, in series [4], the “time required to finish formation of fibrils at 40° C. compared with ordinary temperatures” value is listed as “significantly shortened” and the “time having elapsed until the increase in fluorescent intensity was finished” value (“time having elapsed until the increase” below) is on record as 3 days.

In the case of “Ac-Lys-Gln-Lys-Leu-Leu-Leu-Phe-Leu-Glu-Glu-NH2 (Ac-KQKLLLFLEE-NH2) [10-4F]”, in series [1], the “secondary structure by CD spectrum” value is given as “spectra unique to β-sheet structure” and the “CD spectral change with time” value is “increased signals with time”. For the same substance, the “increase in ThT fluorescent intensity” value in series [2] is recorded as “significant increase in fluorescent intensity”. Also, in series [3], the “rank of difference in fluorescence intensity between nucleus added and not added (ability to amplify fibrils)” value was “order of 10-3L, 10-4F, 10-3F, and 10-3A”; the “rank of increase” value is reported as “largest increase in fluorescent intensity”. Moreover, in series [4], the “time required to finish formation of fibrils at 40° C. compared with ordinary temperatures” value was “hardly changed” and the “time having elapsed until the increase” value was “about 6 days”.

With “Ac-Lys-Gln-Lys-Leu-Leu-Phe-Leu-Leu-Glu-Glu-NH2 (Ac-KQKLLFLLEE-NH2) [10-3F]”, in series [1], the “secondary structure by CD spectrum” value was “spectra unique to β-sheet structure” and the “CD spectral change with time” value was “increased signals with time”. In series [2], the “increase in ThT fluorescent intensity” value is recorded as “no increase in fluorescent intensity”. In series [3], the “rank of difference in fluorescence intensity between nucleus added and not added (ability to amplify fibrils)” value is “order of 10-3L, 10-4F, 10-3F, and 10-3A”; the “rank of increase” value was “order of 10-4F, 10-3L, 10-3F, and 10-3A”. In series [4], the “time required to finish formation of fibrils at 40° C. compared with ordinary temperatures” value is listed as “hardly changed” and the “time having elapsed until the increase” value was “about 6 days”.

As for “Aβ (10-35): peptide consisting of 10 to 35 residues of amyloid β peptide, used as the nucleus of amyloid fibril (YEVHHQKLVFFAEDVGSNKGAIIGLM; Amyloid-beta protein 42; UniProt P05067 681-706, looked up, fragment) [reference compound]”, in series [1], the “secondary structure by CD spectrum” value is recorded as “spectra unique to β-sheet structure” and the “CD spectral change with time” value is recorded as “increased signals with time”.

Turning to “Aβ (14-23): peptide consisting of 14 to 23 residues of amyloid β peptide (HQKLVFFAED; Amyloid-beta protein 42; UniProt P05067 685-694, looked up, fragment)”, in series [1], the “secondary structure by CD spectrum” value was “spectra unique to random coil state” and the “CD spectral change with time” value is “no spectral change with time”. Further, the “time required to finish formation of fibrils at 40° C. compared with ordinary temperatures” value in series [4] is reported as “significantly shortened”.
